Article PMC9352680, “A comprehensive thermodynamic model for RNA binding by the Saccharomyces cerevisiae Pumilio protein PUF4”

T1: PUF4 RNA-binding domain (Saccharomyces cerevisiae, UniProt P25339 537-888)
T1 sequence: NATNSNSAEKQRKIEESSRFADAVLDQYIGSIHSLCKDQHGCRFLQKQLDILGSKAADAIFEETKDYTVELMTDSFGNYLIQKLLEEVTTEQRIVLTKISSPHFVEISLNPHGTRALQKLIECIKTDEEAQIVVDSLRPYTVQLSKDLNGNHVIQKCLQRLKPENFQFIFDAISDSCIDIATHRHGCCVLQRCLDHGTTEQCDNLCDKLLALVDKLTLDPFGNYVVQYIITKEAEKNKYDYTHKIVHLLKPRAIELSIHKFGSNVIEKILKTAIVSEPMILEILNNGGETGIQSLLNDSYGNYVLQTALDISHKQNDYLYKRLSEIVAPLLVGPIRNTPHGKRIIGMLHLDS


What follows are binders tested against T1, PUF4 RNA-binding domain (assay: Mg; RNA-MaP; 20 mM Na-HEPES pH 7.4, 30 mM KOAc, 0.75 mM MgCl2, 0.1% Tween-20, 5% glycerol, 0.1 mg/mL BSA, 2 mM DTT; 25 C; 0.0125-409.6 nM protein). Conditions: tags: N-His6-TEV cleaved; C-SNAP kept, Cy3B-labelled; label: tethered on chip by stalled RNA polymerase.

Binder | Kd [nM]
UCUCUUUGCAUCUUAUCUCUU (ssRNA) [Ib_S1_P4E.1_K4.1_C4.1_H4.1_[T3C]_A4.1_[A6C]_F4.1_T4.1] | > 2300
UCUCUUACUGUAUAUUACCUCUCUU (ssRNA) [Id_ii_S1_P4E.2_K4.1_C4.2_[C-2A]_[T-1C]_H4.1_A4.1_F4.1_T4.2_[G10C]_[T11C]] | 1.69
UCUCUUUUUGUAUAUUAGUUCUCUU (ssRNA) [Id_ii_S1_P4E.2_K4.1_C4.2_[C-2T]_H4.1_A4.1_F4.1_T4.2] | 0.256
UCUCUUACUGUAUAUUAUUUCUCUU (ssRNA) [Id_ii_S1_P4E.2_K4.1_C4.2_[C-2A]_[T-1C]_H4.1_A4.1_F4.1_T4.2_[G10T]] | 1.39
UCUCUUACUGUAUAUUAUGUCUCUU (ssRNA) [Id_ii_S1_P4E.2_K4.1_C4.2_[C-2A]_[T-1C]_H4.1_A4.1_F4.1_T4.2_[G10T]_[T11G]] | 1.34
UCUCUUACUGUAUAUUAACUCUCUU (ssRNA) [Id_ii_S1_P4E.2_K4.1_C4.2_[C-2A]_[T-1C]_H4.1_A4.1_F4.1_T4.2_[G10A]_[T11C]] | 1.47
UCUCUUAUUGUAUAUUACUUCUCUU (ssRNA) [Id_ii_S1_P4E.2_K4.1_C4.2_[C-2A]_H4.1_A4.1_F4.1_T4.2_[G10C]] | 1.16
UCUCUUUAUGUAUAUUAUCUCUCUU (ssRNA) [Id_ii_S1_P4E.2_K4.1_C4.2_[C-2T]_[T-1A]_H4.1_A4.1_F4.1_T4.2_[G10T]_[T11C]] | 0.896
UCUCUUUAUGUAUAUUAUGUCUCUU (ssRNA) [Id_ii_S1_P4E.2_K4.1_C4.2_[C-2T]_[T-1A]_H4.1_A4.1_F4.1_T4.2_[G10T]_[T11G]] | 0.98
UCUCUUUAUGUAUAUUAAUUCUCUU (ssRNA) [Id_ii_S1_P4E.2_K4.1_C4.2_[C-2T]_[T-1A]_H4.1_A4.1_F4.1_T4.2_[G10A]] | 1.17
UCUCUUUUUGUAUAUUAGCUCUCUU (ssRNA) [Id_ii_S1_P4E.2_K4.1_C4.2_[C-2T]_H4.1_A4.1_F4.1_T4.2_[T11C]] | 0.413
UCUCUUUUUGUAUAUUAACUCUCUU (ssRNA) [Id_ii_S1_P4E.2_K4.1_C4.2_[C-2T]_H4.1_A4.1_F4.1_T4.2_[G10A]_[T11C]] | 1.09
UCUCUUUGCAAAUUAUCUCUU (ssRNA) [Ib_S1_P4E.1_K4.1_C4.1_H4.1_[T3C]_A4.1_[T5A]_F4.1_T4.1] | 926
UCUCUUUUUGUAUAUUAAGUCUCUU (ssRNA) [Id_ii_S1_P4E.2_K4.1_C4.2_[C-2T]_H4.1_A4.1_F4.1_T4.2_[G10A]_[T11G]] | 3.68
UCUCUUACUGUAUAUUACUUCUCUU (ssRNA) [Id_ii_S1_P4E.2_K4.1_C4.2_[C-2A]_[T-1C]_H4.1_A4.1_F4.1_T4.2_[G10C]] | 1.6
UCUCUUAUUGUAUAUUAUGUCUCUU (ssRNA) [Id_ii_S1_P4E.2_K4.1_C4.2_[C-2A]_H4.1_A4.1_F4.1_T4.2_[G10T]_[T11G]] | 1.27
UCUCUUUGUAUACUAUCUCUU (ssRNA) [Ic_S1_P4E.1_K4.1_C4.1_H4.1_A4.1_[T7C]_F4.1_T4.1] | 0.741
UCUCUUAAUGUAUAUUAUCUCUCUU (ssRNA) [Id_ii_S1_P4E.2_K4.1_C4.2_[C-2A]_[T-1A]_H4.1_A4.1_F4.1_T4.2_[G10T]_[T11C]] | 2.38
UCUCUUAAUGUAUAUUACUUCUCUU (ssRNA) [Id_ii_S1_P4E.2_K4.1_C4.2_[C-2A]_[T-1A]_H4.1_A4.1_F4.1_T4.2_[G10C]] | 1.68
UCUCUUUAUGUAUAUUACCUCUCUU (ssRNA) [Id_ii_S1_P4E.2_K4.1_C4.2_[C-2T]_[T-1A]_H4.1_A4.1_F4.1_T4.2_[G10C]_[T11C]] | 0.854
UCUCUUAAUGUAUAUUACCUCUCUU (ssRNA) [Id_ii_S1_P4E.2_K4.1_C4.2_[C-2A]_[T-1A]_H4.1_A4.1_F4.1_T4.2_[G10C]_[T11C]] | 2.09
UCUCUUAAUGUAUAUUAUUUCUCUU (ssRNA) [Id_ii_S1_P4E.2_K4.1_C4.2_[C-2A]_[T-1A]_H4.1_A4.1_F4.1_T4.2_[G10T]] | 1.61
UCUCUUUGCACAUUAUCUCUU (ssRNA) [Ib_S1_P4E.1_K4.1_C4.1_H4.1_[T3C]_A4.1_[T5C]_F4.1_T4.1] | 36.2
UCUCUUUUUGUAUAUUACCUCUCUU (ssRNA) [Id_ii_S1_P4E.2_K4.1_C4.2_[C-2T]_H4.1_A4.1_F4.1_T4.2_[G10C]_[T11C]] | 1.09
UCUCUUAGUGUAUAUUAUUUCUCUU (ssRNA) [Id_ii_S1_P4E.2_K4.1_C4.2_[C-2A]_[T-1G]_H4.1_A4.1_F4.1_T4.2_[G10T]] | 2.57

Binder | Kd [nM]
UCUCUUUAUGUAUAUUACUUCUCUU (ssRNA) [Id_ii_S1_P4E.2_K4.1_C4.2_[C-2T]_[T-1A]_H4.1_A4.1_F4.1_T4.2_[G10C]] | 1.03
UCUCUUUUUGUAUAUUAUAUCUCUU (ssRNA) [Id_ii_S1_P4E.2_K4.1_C4.2_[C-2T]_H4.1_A4.1_F4.1_T4.2_[G10T]_[T11A]] | 1.24
UCUCUUACUGUAUAUUAUAUCUCUU (ssRNA) [Id_ii_S1_P4E.2_K4.1_C4.2_[C-2A]_[T-1C]_H4.1_A4.1_F4.1_T4.2_[G10T]_[T11A]] | 1.83
UCUCUUAUUGUAUAUUAUUUCUCUU (ssRNA) [Id_ii_S1_P4E.2_K4.1_C4.2_[C-2A]_H4.1_A4.1_F4.1_T4.2_[G10T]] | 0.453
UCUCUUUAUGUAUAUUAGUUCUCUU (ssRNA) [Id_ii_S1_P4E.2_K4.1_C4.2_[C-2T]_[T-1A]_H4.1_A4.1_F4.1_T4.2] | 0.379
UCUCUUAUUGUAUAUUAAAUCUCUU (ssRNA) [Id_ii_S1_P4E.2_K4.1_C4.2_[C-2A]_H4.1_A4.1_F4.1_T4.2_[G10A]_[T11A]] | 0.655
UCUCUUAUUGUAUAUUAACUCUCUU (ssRNA) [Id_ii_S1_P4E.2_K4.1_C4.2_[C-2A]_H4.1_A4.1_F4.1_T4.2_[G10A]_[T11C]] | 1.01
UCUCUUAUUGUAUAUUAUAUCUCUU (ssRNA) [Id_ii_S1_P4E.2_K4.1_C4.2_[C-2A]_H4.1_A4.1_F4.1_T4.2_[G10T]_[T11A]] | 1.12
UCUCUUUUUGUAUAUUACUUCUCUU (ssRNA) [Id_ii_S1_P4E.2_K4.1_C4.2_[C-2T]_H4.1_A4.1_F4.1_T4.2_[G10C]] | 0.909
UCUCUUUGCAUUUUAUCUCUU (ssRNA) [Ib_S1_P4E.1_K4.1_C4.1_H4.1_[T3C]_A4.1_[A6T]_F4.1_T4.1] | 1640
UCUCUUUUUGUAUAUUAGGUCUCUU (ssRNA) [Id_ii_S1_P4E.2_K4.1_C4.2_[C-2T]_H4.1_A4.1_F4.1_T4.2_[T11G]] | 0.884
UCUCUUAUUGUAUAUUAUCUCUCUU (ssRNA) [Id_ii_S1_P4E.2_K4.1_C4.2_[C-2A]_H4.1_A4.1_F4.1_T4.2_[G10T]_[T11C]] | 0.846
UCUCUUUAUGUAUAUUAACUCUCUU (ssRNA) [Id_ii_S1_P4E.2_K4.1_C4.2_[C-2T]_[T-1A]_H4.1_A4.1_F4.1_T4.2_[G10A]_[T11C]] | 1.35
UCUCUUUUUGUAUAUUAUGUCUCUU (ssRNA) [Id_ii_S1_P4E.2_K4.1_C4.2_[C-2T]_H4.1_A4.1_F4.1_T4.2_[G10T]_[T11G]] | 0.981
UCUCUUUUUGUAUAUUAAUUCUCUU (ssRNA) [Id_ii_S1_P4E.2_K4.1_C4.2_[C-2T]_H4.1_A4.1_F4.1_T4.2_[G10A]] | 1.09
UCUCUUUGCAUGUUAUCUCUU (ssRNA) [Ib_S1_P4E.1_K4.1_C4.1_H4.1_[T3C]_A4.1_[A6G]_F4.1_T4.1] | 2150
UCUCUUACUGUAUAUUAUCUCUCUU (ssRNA) [Id_ii_S1_P4E.2_K4.1_C4.2_[C-2A]_[T-1C]_H4.1_A4.1_F4.1_T4.2_[G10T]_[T11C]] | 1.4
UCUCUUUUUGUAUAUUAUCUCUCUU (ssRNA) [Id_ii_S1_P4E.2_K4.1_C4.2_[C-2T]_H4.1_A4.1_F4.1_T4.2_[G10T]_[T11C]] | 0.856
UCUCUUAUUGUAUAUUACCUCUCUU (ssRNA) [Id_ii_S1_P4E.2_K4.1_C4.2_[C-2A]_H4.1_A4.1_F4.1_T4.2_[G10C]_[T11C]] | 0.788
UCUCUUUAUGUAUAUUAUUUCUCUU (ssRNA) [Id_ii_S1_P4E.2_K4.1_C4.2_[C-2T]_[T-1A]_H4.1_A4.1_F4.1_T4.2_[G10T]] | 1.07
UCUCUUUAUGUAUAUUAAAUCUCUU (ssRNA) [Id_ii_S1_P4E.2_K4.1_C4.2_[C-2T]_[T-1A]_H4.1_A4.1_F4.1_T4.2_[G10A]_[T11A]] | 1.94
UCUCUUUUUGUAUAUUAUUUCUCUU (ssRNA) [Id_ii_S1_P4E.2_K4.1_C4.2_[C-2T]_H4.1_A4.1_F4.1_T4.2_[G10T]] | 0.679
UCUCUUUUUGUAUAUUAAAUCUCUU (ssRNA) [Id_ii_S1_P4E.2_K4.1_C4.2_[C-2T]_H4.1_A4.1_F4.1_T4.2_[G10A]_[T11A]] | 1.21
UCUCUUUAUGUAUAUUAGCUCUCUU (ssRNA) [Id_ii_S1_P4E.2_K4.1_C4.2_[C-2T]_[T-1A]_H4.1_A4.1_F4.1_T4.2_[T11C]] | 0.465
